For test [1], the target named is P. falciparum invasion ligand Rh5 (of the parasites in the invasion assays) (Plasmodium falciparum). In words: cell-based or functional assay.
Test [2] addresses human BSG on erythrocytes (human) (UniProt P35613). Nature of the test: cell-based or functional assay.
Test [3] deals with BSG-SCd4d3+4bio (human; rat) (UniProt P35613). In words: SPR (BIAcore T100, 37° C.), kinetic analysis at 100 µl/min, global 1:1 fit. A general note: SPR reads the build-up and loss of mass on a sensor chip optically.
Test [4] addresses BSG-L bait (biotinylated ectodomain of the long, three domain isoform of BASIGIN) (human; rat) (UniProt P35613). In words: SPR (BIAcore T100, 37° C.), Rh5 injected over the immobilised three domain isoform of BSG.
Test [5] addresses BSG-SCd4d3+4bio (human; rat) (UniProt P35613). In words: SPR (BIAcore T100, 37° C.), Rh5 injected over BSG-S captured on streptavidin, equilibrium, non-linear curve fit.
Test [6] addresses T1, biotinylated CD4 domains 3+4 alone (negative control) (rat, UniProt P05540 207-394, enzymatically biotinylated on the C-terminal biotinylation sequence).
T1 construct: domain: domains 3 and 4; Immobilised on streptavidin-coated Nile Red fluorescent microbeads in the assay; also called Cd4d3+4; CD4-coated microbeads
T1 sequence: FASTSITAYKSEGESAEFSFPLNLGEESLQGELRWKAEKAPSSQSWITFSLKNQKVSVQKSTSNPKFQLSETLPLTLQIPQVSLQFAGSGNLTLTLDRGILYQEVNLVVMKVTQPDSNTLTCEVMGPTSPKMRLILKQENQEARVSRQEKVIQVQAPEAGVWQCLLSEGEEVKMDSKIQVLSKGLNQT
Nature of the test: flow cytometry, protein-coated fluorescent microbeads on human erythrocytes. (A flow cytometer gives signals particle by particle.)

human BSG on erythrocytes (human), sequence (P35613 22-385): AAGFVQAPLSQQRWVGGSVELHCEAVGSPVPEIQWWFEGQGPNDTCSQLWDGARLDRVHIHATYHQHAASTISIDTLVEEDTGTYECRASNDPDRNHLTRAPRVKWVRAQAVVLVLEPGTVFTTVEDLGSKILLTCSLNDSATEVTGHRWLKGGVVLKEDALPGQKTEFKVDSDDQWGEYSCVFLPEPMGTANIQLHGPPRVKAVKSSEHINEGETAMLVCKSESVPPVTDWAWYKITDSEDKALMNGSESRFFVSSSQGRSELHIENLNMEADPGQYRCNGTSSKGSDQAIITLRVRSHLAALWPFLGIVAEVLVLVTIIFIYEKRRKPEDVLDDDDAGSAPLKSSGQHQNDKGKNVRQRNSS

In test [1], “BSG-S-Cd4d3+4-COMP-His (from UniProt P35613 138-325; P05540 207-394; P35444 28-72) (receptor)” yielded an inhibition of erythrocyte invasion, Dd2 P. falciparum strain, IC50 of 1000 nM.

The molecule MEM-M6/6 (antibody) yielded a concentration that prevented all detectable invasion, 3D7 strain, microscopy in test [2] of more than 10 µg/mL.

What is called koff is the rate constant with which the complex falls apart. By kon is commonly meant the rate constant with which the complex forms. The Kd is the concentration at which binding is half-saturated. Low readings indicate a tighter complex, high ones a looser complex. Take “PfRh5Cd4d3+4-6H (from UniProt P05540 207-394) (ligand)”: in test [3], the interaction half-life came out at 2.9 s, the dissociation rate constant (koff) was determined as 0.24 s⁻¹ and the on-rate constant (kon) came out at 225000 M⁻¹ s⁻¹. In addition, in test [4], the Kd was determined as 710 nM and the koff stood at 0.144 s⁻¹. Also, the dissociation constant Kd in test [5] worked out at 1140 nM.

B1: GLYCOPHORIN A (GYPA) on human erythrocytes (receptor)
chain: LSTTEVAMHTSTSSSVTKSYISSQTNDTHKRDTYAATPRAHEVSEISVRTVYPPEEETGERVQLAHHFSEPEITLIIFGVMAGVIGTILLISYGIRRLIKKSPSDVKPLPSPDTDVPLSSVEIENPETSDQ
modifications: sialylated (binding was lost after neuraminidase treatment of the cells)
notes: whole, on cells; also called native GYPA
In the case of B1, the binding result in test [6] is on record as “no binding”.

Source of the values: patent US20140093540A1 (published 2014).
